# Assay results reported in patent US11779592B2, “Inhibition of NGLY1 for the treatment of cancer” (University of North Texas Health Science Center, priority 2017, dated 2023).
# Columns and labels:
# SK-MEL-2 tumors = assay: Xenograft tumor model with SK-MEL-2 cells carrying inducible shRNA; format: in vivo, mice
# From the text: (FIG. 14A) A schematic illustration of animal study design to test the in vivo antitumor efficacy of NGLY1 suppression in melanoma. (FIG. 14B) The volume changes of xenograted SK-MEL-2 tumors with the induction of NT-shRNA (n=10) and NGLY1-shRNA645 (n=8) for 35 days. Tumors were harvested at the end of the study for Western blotting analysis. Bars: median tumor volumes at the indicated time points. […] (FIG. 14C) The expression of NGLY1, GADD153, IRF3, and GFP (ZsGreen) proteins in selected tumors was analyzed by Western blotting. (FIG. 14D) The enhanced expression of IL-29 in the tumor tissues with NGLY1 knockdown was detected by immunofluorescence staining.
# Six-week-old female NOD.CB17-Prkdc^scid/J mice (The Jackson Laboratory, Bar Harbor, ME) were group-housed under conditions of constant photoperiod (12 hours light: 12 hours dark) with ad libitum access to sterilized food and water. Since the animal work in this study was completed using an animal study service provided by the translational core laboratory at the University of Maryland, Baltimore, all experimental procedures and protocols utilizing mice were approved by the Institutional Animal Care and Use Committee at the University of Maryland. […] Tumors were measured weekly using calipers and their volumes calculated using a standard formula: width^2×length×0.52. Body weights were measured weekly. […]
# NGLY1 = NGLY1 expression in stable clones of melanoma cells (immunoblotting); format: cell-based, human; conditions: stable clones of MALME3M, UACC257 and SK-MEL-2 cells, 48-hour treatment of dox
# From the text: These NGLY1-targeting shRNA sequences and a scrambled (non-targeting) shRNA sequence were cloned into doxycycline (dox)-inducible, polycistronic green fluorescence protein (GFP)-shRNA expression constructs (a pZIP inducible lentiviral vector, TransOMIC). Stable clones have been generated with the shRNA expression constructs in multiple human melanoma cell lines, including MALME3M, UACC257, SK-MEL-2, and COLO829 melanoma cells. […] Similar knockdown effects were found in the stable clones of other melanoma cells with this particular NGLY1 shRNA sequence. […] Similar to human normal fibroblasts, normal melanocytes (FIG. 5D) and keratinocytes appeared to well tolerate NGLY1 knockdown and show no sign of increased cell death. In addition, SK-MEL-2, MALME3M cells that express inducible NGLY1 shRNA presented significant apoptosis, compared to their scrambled RNA-expressing counterparts. The expression of exogenous human NGLY1 in melanoma cells attenuated NGLY1-targeting shRNA-induced apoptosis (FIG. 5E).
# (§1) The knockdown of NGLY1 expression in melanoma cells was achieved by the transduction of pZIP-TRE3GS lentiviral expression vectors that carry two independent shRNA sequences (Below; TransOMIC Technologies, Huntsville, AL). […] The expression of the shRNA sequences and an open reading frame of the ZsGreen reporter is driven by the TRE3GS doxycycline-inducible promoter. […]
# [1] = tested on: U-251MG glioblastoma cells; assay: Cell morphology of U-251MG cells with NGLY1 knockdown; format: cell-based
# UACC257 cells = assay: Cell morphology of UACC257 stable clones with dox-inducible shRNA; format: cell-based, human; conditions: 2 μM dox for 72 hours
# Method: (FIG. 5A) The doxycycline (dox)-inducible pZIP-TRE3GS expression vector of non-targeting shRNA and NGLY1-targeting shRNA sequences. (FIG. 5B) The stable clones of UACC257 cells with dox-inducible shRNA. […] Cells with induced non-targeting (scramble)-shRNA maintain a morphology similar to the cells before dox induction. Cells were imaged after the treatment of 2 μM dox for 72 hours. BF: bright field. ZsGreen: green fluorescence protein. […] (FIG. 5E) The expression of human NGLY1-FLAG in SK-MEL-2 (SK) cells attenuates NGLY1-targeting shRNA-induced apoptosis. EV: empty vector, NGLY1-F: NGLY1-FLAG expression vector. […] All data were presented as mean±standard deviation (n=3, *P<0.05, […]). […] The cell viability curves of combinatorial treatment were plotted according to the doses of dox used in the treatment. Combination indexes were calculated using Calcusyn software. A combination index value <1 was considered synergistic. A combination index value <0.2 was considered highly synergistic. […]
# as §1
# HepG2 liver cancer cells = assay: Cell morphology of HepG2 cells with NGLY1 knockdown; format: cell-based
molecule,measurement,setting,value
"NGLY1-shRNA645: NGLY1-targeting shRNA sequence (SEQ ID NO: 5), dox-inducible lentiviral vector; used in the xenograft study (nucleic acid) DNA: CCGAGUUUCAAAUAACAAUCAAUAGUGAAGCCACAGAUGUAUUGAUUGUUAUUUGAAACUCGAU",tumors that showed regression at the end of the study,SK-MEL-2 tumors; after size increase during the initial 3-4 weeks of dox treatment,three out of eight
same,growth of melanoma tumors,"SK-MEL-2 tumors; dox-induced knockdown, 5 weeks",impeded
same,expression of NGLY1,NGLY1,largely suppressed
same,cell morphology,[1],morphology of apoptosis
same,cell morphology,UACC257 cells,morphological features of apoptosis
same,cell morphology,HepG2 liver cancer cells,morphology of apoptosis
